To fix the notation:
B1: His-6-Munc18c [not stated] / Sx4 lacking the N-terminal 36 amino acids (N36Δ), GST fusion [not stated] (parent complex)
chain 1: MAPPVSERGLKSVVWRKIKTAVFDDCRKEGEWKIMLLDEFTTKLLSSCCKMTDLLEEGITVIENIYKNREPVRQMKALYFISPTPKSVDCFLRDFGSKSEKKYKAAYIYFTDFCPDSLFNKIKASCSKSIRRCKEINISFIPQESQVYTLDVPDAFYYCYSPDPSNASRKEVVMEAMAEQIVTVCATLDENPGVRYKSKPLDNASKLAQLVEKKLEDYYKIDEKGLIKGKTQSQLLIIDRGFDPVSTVLHELTFQAMAYDLLPIENDTYKYKTDGKEKEAVLEEDDDLWVRVRHRHIAVVLEEIPKLMKEISSTKKATEGKTSLSALTQLMKKMPHFRKQISKQVVHLNLAEDCMNKFKLNIEKLCKTEQDLALGTDAEGQRVKDSMLVLLPVLLNKNHDNCDKIRAVLLYIFGINGTTEENLDRLIHNVKIEDDSDMIRNWSHLGVPIVPPSQQAKPLRKDRSAEETFQLSRWTPFIKDIMEDAIDNRLDSKEWPYCSRCPAVWNGSGAVSARQKPRTNYLELDRKNGSRLIIFVIGGITYSEMRCAYEVSQAHKSCEVIIGSTHILTPRKLLDDIKMLNKSKDKVSFKDE
chain 2: PDDEFFQKVQTIRQTMAKLESKVRELEKQQVTILATPLPEESMKQGLQNLREEIKQLGREVRAQLKAIEPQKEEADENYNSVNTRMKKTQHGVLSQQFVELINKCNSMQSEYREKNVERIRRQLKITNAGMVSDEELEQMLDSGQSEVFVSNILKDTQVTRQALNEISARHSEIQQLERSIRELHEIFTFLATEVEMQGEMINRIEKNILSSADYVERGQEHVKIALENQKKARKKK
B2: His-6-Munc18c [not stated] / Sx4-GST, wild-type Syntaxin 4 cytosolic domain (residues 1-273) [not stated] (parent complex)
chain 1: B1 chain 1
chain 2: MRDRTHELRQGDNISDDEDEVRVALVVHSGAARLGSPDDEFFQKVQTIRQTMAKLESKVRELEKQQVTILATPLPEESMKQGLQNLREEIKQLGREVRAQLKAIEPQKEEADENYNSVNTRMKKTQHGVLSQQFVELINKCNSMQSEYREKNVERIRRQLKITNAGMVSDEELEQMLDSGQSEVFVSNILKDTQVTRQALNEISARHSEIQQLERSIRELHEIFTFLATEVEMQGEMINRIEKNILSSADYVERGQEHVKIALENQKKARKKK

2 variants from publication PMC3103433 (2011) can be followed below.

In the first assay the parent is B1. Nature of the assay: GST pull-down, anti-Munc18c immunoblot quantification; 1 μg GST fusion on glutathione-Sepharose, 1 μg Munc18c, binding buffer, overnight, 4°C; read off a plot. A general note: In western blotting, separated proteins are transferred to a membrane and probed.
Take chain 2 PDDEFFQKVQTIRQTMAKLESKVRELEKQQVTILATPLPEESMKQGLQNLREEIKQLGREVRAQLKAIEPQKEEADENYNSVNTRMKKTQHGVLSQQFVELINKCNSMQSEYREKNVERIRRQLKITNAGMVSDEEAAQMLDSGQSEVFVSNILKDTQVTRQALNEISARHSEIQQLERSIRELHEIFTFLATEVEMQGEMINRIEKNILSSADYVERGQEHVKIALENQKKARKKK [chain 2 L137A, chain 2 E138A]: the screen value is ~13 % of wild-type Sx4.

In the next assay the parent is B1. Nature of the assay: GST pull-down, anti-Munc18c immunoblot quantification; 1 μg GST fusion on glutathione-Sepharose, 1 μg Munc18c, binding buffer, overnight, 4°C; n=3; read off a plot.
As for chain 2 PDDEFFQKVQTIRQTMAKLESKVRELEKQQVTILATPLPEESMKQGLQNLREEIKQLGREVRAQLKAIEPQKEEADENYNSVNTRMKKTQHGVLSQQFVELINKCNSMQSEYREKNVERIRRQLKITNAGMVSDEEAAQMLDSGQSEVFVSNILKDTQVTRQALNEISARHSEIQQLERSIRELHEIFTFLATEVEMQGEMINRIEKNILSSADYVERGQEHVKIALENQKKARKKK [chain 2 L137A, chain 2 E138A], the screen value was ~18 % of wild-type Sx4.

The variants in the next assay derive from B2. Briefly: GST pull-down, anti-Munc18c immunoblot quantification; 1 μg GST fusion on glutathione-Sepharose, 1 μg Munc18c, binding buffer, overnight, 4°C; read off a plot.
With chain 2 MRDRTHELRQGDNISDDEDEVRVALVVHSGAARLGSPDDEFFQKVQTIRQTMAKLESKVRELEKQQVTILATPLPEESMKQGLQNLREEIKQLGREVRAQLKAIEPQKEEADENYNSVNTRMKKTQHGVLSQQFVELINKCNSMQSEYREKNVERIRRQLKITNAGMVSDEEAAQMLDSGQSEVFVSNILKDTQVTRQALNEISARHSEIQQLERSIRELHEIFTFLATEVEMQGEMINRIEKNILSSADYVERGQEHVKIALENQKKARKKK [chain 2 L173A, chain 2 E174A], the percent of parent is ~73 % of wild-type Sx4.

Variants of B2 are the subject of another assay. Nature of the assay: GST pull-down, anti-Munc18c immunoblot quantification; 1 μg GST fusion on glutathione-Sepharose, 1 μg Munc18c, binding buffer, overnight, 4°C; n=3; read off a plot.
As to chain 2 MRDRTHELRQGDNISDDEDEVRVALVVHSGAARLGSPDDEFFQKVQTIRQTMAKLESKVRELEKQQVTILATPLPEESMKQGLQNLREEIKQLGREVRAQLKAIEPQKEEADENYNSVNTRMKKTQHGVLSQQFVELINKCNSMQSEYREKNVERIRRQLKITNAGMVSDEEAAQMLDSGQSEVFVSNILKDTQVTRQALNEISARHSEIQQLERSIRELHEIFTFLATEVEMQGEMINRIEKNILSSADYVERGQEHVKIALENQKKARKKK [chain 2 L173A, chain 2 E174A], the percent of parent was ~89 % of wild-type Sx4.
